B1: NOTCH4 peptide 1606-1621 (Neurogenic locus notch homolog protein 4), 16-mer library wild type / NSP9 (ORF1ab Nsp9, residues 4141-4253) (parent complex)
chain 1: QGAWLGAPEPWEPLLD
chain 2: NNELSPVALRQMSCAAGTTQTACTDDNALAYYNTTKGGRFVLALLSDLQDLKWARFPKSDGTGTIYTELEPPCRFVTDTPKGPKVKYLYFIKGLNNLNRGMVLGSLAATVRLQ

Variants of: B1
Experiment: bait immobilised on MaxiSorp plates (10 µg), library pre-cleared on GST, 2 h binding at 4 °C, five washes; one round per day, days 1-4; value from days 2 and 3

Variant	screen value
chain 1 P8F	0.000628 average fractional NGS count over selection days 2 and 3 (reads of this peptide / all reads for the bait, averaged over …
chain 1 P8I	0.000952 average fractional NGS count over selection days 2 and 3 (reads of this peptide / all reads for the bait, averaged over …
chain 1 P8R	8.2e-05 average fractional NGS count over selection days 2 and 3 (reads of this peptide / all reads for the bait, averaged over …
chain 1 P8E	0.000231 average fractional NGS count over selection days 2 and 3 (reads of this peptide / all reads for the bait, averaged over …
chain 1 P8L	0.000953 average fractional NGS count over selection days 2 and 3 (reads of this peptide / all reads for the bait, averaged over …
chain 1 P8Q	0.000198 average fractional NGS count over selection days 2 and 3 (reads of this peptide / all reads for the bait, averaged over …
chain 1 P8S	0.00076 average fractional NGS count over selection days 2 and 3 (reads of this peptide / all reads for the bait, averaged over …
chain 1 P8A	0.000677 average fractional NGS count over selection days 2 and 3 (reads of this peptide / all reads for the bait, averaged over …
chain 1 P8M	0.00044 average fractional NGS count over selection days 2 and 3 (reads of this peptide / all reads for the bait, averaged over …
chain 1 P8G	0.000266 average fractional NGS count over selection days 2 and 3 (reads of this peptide / all reads for the bait, averaged over …
chain 1 P8H	0.00106 average fractional NGS count over selection days 2 and 3 (reads of this peptide / all reads for the bait, averaged over …
chain 1 P8N	0.000215 average fractional NGS count over selection days 2 and 3 (reads of this peptide / all reads for the bait, averaged over …
chain 1 P13M	0.00222 average fractional NGS count over selection days 2 and 3 (reads of this peptide / all reads for the bait, averaged over …
chain 1 P13E	0.000762 average fractional NGS count over selection days 2 and 3 (reads of this peptide / all reads for the bait, averaged over …
chain 1 P13W	0.000306 average fractional NGS count over selection days 2 and 3 (reads of this peptide / all reads for the bait, averaged over …
chain 1 P13F	0.0013 average fractional NGS count over selection days 2 and 3 (reads of this peptide / all reads for the bait, averaged over …
chain 1 P13Q	0.000154 average fractional NGS count over selection days 2 and 3 (reads of this peptide / all reads for the bait, averaged over …
chain 1 P13H	0.000211 average fractional NGS count over selection days 2 and 3 (reads of this peptide / all reads for the bait, averaged over …
chain 1 P13Y	0.000242 average fractional NGS count over selection days 2 and 3 (reads of this peptide / all reads for the bait, averaged over …
chain 1 P13G	0.00615 average fractional NGS count over selection days 2 and 3 (reads of this peptide / all reads for the bait, averaged over …
chain 1 P13N	0.000298 average fractional NGS count over selection days 2 and 3 (reads of this peptide / all reads for the bait, averaged over …
chain 1 P13K	0.00839 average fractional NGS count over selection days 2 and 3 (reads of this peptide / all reads for the bait, averaged over …
chain 1 P13R	0.00106 average fractional NGS count over selection days 2 and 3 (reads of this peptide / all reads for the bait, averaged over …
chain 1 P13I	0.00354 average fractional NGS count over selection days 2 and 3 (reads of this peptide / all reads for the bait, averaged over …
chain 1 E12Q	0.00173 average fractional NGS count over selection days 2 and 3 (reads of this peptide / all reads for the bait, averaged over …

Variant	screen value
chain 1 E12W	0.0479 average fractional NGS count over selection days 2 and 3 (reads of this peptide / all reads for the bait, averaged over …
chain 1 E12H	8.76e-05 average fractional NGS count over selection days 2 and 3 (reads of this peptide / all reads for the bait, averaged over …
chain 1 E12T	0.00258 average fractional NGS count over selection days 2 and 3 (reads of this peptide / all reads for the bait, averaged over …
chain 1 E12D	0.000215 average fractional NGS count over selection days 2 and 3 (reads of this peptide / all reads for the bait, averaged over …
chain 1 E12P	0.00101 average fractional NGS count over selection days 2 and 3 (reads of this peptide / all reads for the bait, averaged over …
chain 1 E12L	0.00277 average fractional NGS count over selection days 2 and 3 (reads of this peptide / all reads for the bait, averaged over …
chain 1 E12I	0.000686 average fractional NGS count over selection days 2 and 3 (reads of this peptide / all reads for the bait, averaged over …
chain 1 E12Y	0.00153 average fractional NGS count over selection days 2 and 3 (reads of this peptide / all reads for the bait, averaged over …
chain 1 E12G	0.00333 average fractional NGS count over selection days 2 and 3 (reads of this peptide / all reads for the bait, averaged over …
chain 1 E12S	0.00302 average fractional NGS count over selection days 2 and 3 (reads of this peptide / all reads for the bait, averaged over …
chain 1 L5I	0.000857 average fractional NGS count over selection days 2 and 3 (reads of this peptide / all reads for the bait, averaged over …
chain 1 W11P	0.0013 average fractional NGS count over selection days 2 and 3 (reads of this peptide / all reads for the bait, averaged over …
chain 1 W11T	0.000139 average fractional NGS count over selection days 2 and 3 (reads of this peptide / all reads for the bait, averaged over …
chain 1 W11S	0.000466 average fractional NGS count over selection days 2 and 3 (reads of this peptide / all reads for the bait, averaged over …
chain 1 W11D	0.000384 average fractional NGS count over selection days 2 and 3 (reads of this peptide / all reads for the bait, averaged over …
chain 1 W11H	0.00345 average fractional NGS count over selection days 2 and 3 (reads of this peptide / all reads for the bait, averaged over …
chain 1 W11M	0.0273 average fractional NGS count over selection days 2 and 3 (reads of this peptide / all reads for the bait, averaged over …
chain 1 W11Q	0.00182 average fractional NGS count over selection days 2 and 3 (reads of this peptide / all reads for the bait, averaged over …
chain 1 W11L	0.0119 average fractional NGS count over selection days 2 and 3 (reads of this peptide / all reads for the bait, averaged over …
chain 1 W11V	0.000951 average fractional NGS count over selection days 2 and 3 (reads of this peptide / all reads for the bait, averaged over …
chain 1 W11E	0.00215 average fractional NGS count over selection days 2 and 3 (reads of this peptide / all reads for the bait, averaged over …
chain 1 W11A	0.00423 average fractional NGS count over selection days 2 and 3 (reads of this peptide / all reads for the bait, averaged over …
chain 1 P10D	0.00968 average fractional NGS count over selection days 2 and 3 (reads of this peptide / all reads for the bait, averaged over …
chain 1 P10I	0.00391 average fractional NGS count over selection days 2 and 3 (reads of this peptide / all reads for the bait, averaged over …
chain 1 P10K	0.00223 average fractional NGS count over selection days 2 and 3 (reads of this peptide / all reads for the bait, averaged over …

Variant	screen value
chain 1 P10M	0.0078 average fractional NGS count over selection days 2 and 3 (reads of this peptide / all reads for the bait, averaged over …
chain 1 P10W	0.00034 average fractional NGS count over selection days 2 and 3 (reads of this peptide / all reads for the bait, averaged over …
chain 1 P10N	0.000425 average fractional NGS count over selection days 2 and 3 (reads of this peptide / all reads for the bait, averaged over …
chain 1 P10E	0.00264 average fractional NGS count over selection days 2 and 3 (reads of this peptide / all reads for the bait, averaged over …
chain 1 P10Q	0.000676 average fractional NGS count over selection days 2 and 3 (reads of this peptide / all reads for the bait, averaged over …
chain 1 P10V	0.00245 average fractional NGS count over selection days 2 and 3 (reads of this peptide / all reads for the bait, averaged over …
chain 1 P10A	0.000635 average fractional NGS count over selection days 2 and 3 (reads of this peptide / all reads for the bait, averaged over …
chain 1 P10G	0.000535 average fractional NGS count over selection days 2 and 3 (reads of this peptide / all reads for the bait, averaged over …
chain 1 P10L	0.00033 average fractional NGS count over selection days 2 and 3 (reads of this peptide / all reads for the bait, averaged over …
chain 1 P10S	0.000591 average fractional NGS count over selection days 2 and 3 (reads of this peptide / all reads for the bait, averaged over …
chain 1 P10R	0.00113 average fractional NGS count over selection days 2 and 3 (reads of this peptide / all reads for the bait, averaged over …
chain 1 P10H	0.000471 average fractional NGS count over selection days 2 and 3 (reads of this peptide / all reads for the bait, averaged over …
chain 1 G6P	0.00151 average fractional NGS count over selection days 2 and 3 (reads of this peptide / all reads for the bait, averaged over …
chain 1 G6A	9.6e-05 average fractional NGS count over selection days 2 and 3 (reads of this peptide / all reads for the bait, averaged over …
chain 1 G6D	0.000544 average fractional NGS count over selection days 2 and 3 (reads of this peptide / all reads for the bait, averaged over …
chain 1 L14Y	0.00146 average fractional NGS count over selection days 2 and 3 (reads of this peptide / all reads for the bait, averaged over …
chain 1 L14H	0.000429 average fractional NGS count over selection days 2 and 3 (reads of this peptide / all reads for the bait, averaged over …
chain 1 L14F	0.00284 average fractional NGS count over selection days 2 and 3 (reads of this peptide / all reads for the bait, averaged over …
chain 1 L14P	0.000127 average fractional NGS count over selection days 2 and 3 (reads of this peptide / all reads for the bait, averaged over …
chain 1 L14T	0.00105 average fractional NGS count over selection days 2 and 3 (reads of this peptide / all reads for the bait, averaged over …
chain 1 L14A	0.00317 average fractional NGS count over selection days 2 and 3 (reads of this peptide / all reads for the bait, averaged over …
chain 1 L14M	0.00305 average fractional NGS count over selection days 2 and 3 (reads of this peptide / all reads for the bait, averaged over …
chain 1 L14W	0.000273 average fractional NGS count over selection days 2 and 3 (reads of this peptide / all reads for the bait, averaged over …
chain 1 L15H	0.00012 average fractional NGS count over selection days 2 and 3 (reads of this peptide / all reads for the bait, averaged over …
chain 1 L15V	0.00299 average fractional NGS count over selection days 2 and 3 (reads of this peptide / all reads for the bait, averaged over …

From paper PMC12102759 (2025)
